Experimental data taken from the supplement of paper PMC10567573.

B1: INTS3 (parent)
chain: FSDDEEDLNSKGKKREFRFHPIKE
B2: SNAP91 (parent)
chain: FAAPSPATTASPAKVDSSGVIDLF

Variants of: B1
Assay: protein stability index of a GFP-peptide fusion (GPS, HEK-293T) (PSI 1-6); higher = more stable
Details: c terminus: a fixed tail appended
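Further: lentivirally expressed fusions sorted by FACS into six bins by GFP to DsRed ratio, PSI derived from sequencing read proportions per bin multiplied by bin number.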

Protein stability index, by site and new letter:
R15: M 2.56 | Q 3.62 | V 3.14 | G 3.2 | F 2.81 | C 3.31 | K 3.89 | Y 2.56 | T 3.38 | A 3.8 | D 3.94 | E 4.63 | L 2.53 | W 2.42 | N 3.49 | S 3.6 | I 3.47 | H 2.26 | P 2.6
K14: R 2.88 | Y 2.48 | W 1.53 | T 3.46 | S 3.79 | V 2.03
I22: L 3.19 | Y 2.48 | D 3.98 | W 2.33 | N 2.88 | K 2.81 | Q 3.32 | F 2.12 | P 3.25 | T 3.29 | E 3.89 | A 2.88 | S 2.63 | G 2.98 | R 3 | H 2.91 | M 3.2 | C 2.48 | V 3.07
F17: H 5.01 | Y 4.35 | D 4.43 | E 5.03 | G 5.18 | R 4.97 | T 5.04 | K 5.12 | A 5.13 | L 4.76 | V 4.85 | C 5.31 | Q 5.18 | N 5.01 | I 4.9 | W 2.01 | S 5.44 | P 5.06 | M 4.79
K23: C 3.43 | D 4.1 | M 3.5 | P 3.06 | R 2.68 | E 3.64 | Y 2.91 | L 2.95 | A 3.81 | I 2.93 | S 3.19 | Q 3.18 | N 3.18 | F 3.4 | V 3.06 | T 3.52 | W 2.75 | H 3.34 | G 3.19
H20: A 4.58 | C 4.31 | D 5.39 | V 3.92 | E 5.28 | G 4.34 | S 5.18 | Y 4.51 | L 5.1 | T 4.59 | Q 4.44 | M 4.83 | P 4.86 | W 4.31 | K 5.13 | N 4.69 | F 3.94 | R 4.24 | I 4.59
R18: C 4.57 | V 4.56 | D 4.94 | S 4.12 | A 4.33 | T 4.64 | N 5.14 | F 3.27 | H 4.85 | Y 4.36 | K 4.63 | M 4.9 | W 3.35 | E 5.1 | Q 5.2 | I 4.55 | L 4.57 | G 4.77 | P 4.76
E16: Y 2.61 | D 4 | C 2.37 | L 3.46 | F 3.05 | N 2.88 | H 3.08 | V 2.89 | K 3.69 | A 2.25 | M 2.74 | G 2.41 | W 2.45 | Q 2.61 | I 2.58 | P 2.17 | T 2.67 | S 2.93 | R 2.23
F19: W 3.72 | A 5.07 | H 5.29 | S 5.6 | Y 3.49 | V 5.1 | P 5.07 | M 4.86 | D 5.53 | T 5.06 | R 5.29 | K 5.4 | I 4.68 | Q 5.14 | C 4.98 | E 5.59 | G 4.98 | L 4.67 | N 5.26
P21: Q 3.44 | Y 3.73 | I 3.7 | A 3.98 | F 3.58 | G 4.16 | M 3.32 | S 3.88 | T 4.43 | N 4.11 | H 4.01 | W 2.53 | R 4.19 | K 4.55 | C 3.28 | L 4.25 | V 3.88 | E 4 | D 3.76
E24: Q 2.35 | S 2.11 | L 2.14 | P 1.76 | D 3.07 | T 1.81 | I 2.06 | K 2.14 | M 1.8 | C 2.18 | N 2.69 | R 2.31 | W 2.45 | A 2.2 | H 2.2 | G 2.17 | V 2.07 | Y 2.72 | F 1.91

Variants of: B2
Assay: as above
Details: c terminus: a fixed tail appended

Protein stability index of substitutions, site by site:
A3: D 2.29 | N 1.86 | F 1.62 | E 2.17 | T 2.6 | Y 1.79 | L 2.33 | H 2.23 | M 1.92 | I 2.28 | K 2.38 | W 2.09 | P 2.44 | V 2.46 | Q 2.31 | R 2.12 | S 2.61 | G 2.32 | C 1.99
F1: Q 4.28 | W 3.01 | D 4.3 | V 3.9 | M 3.76 | N 3.79 | A 3.95 | H 3.86 | E 4.39 | K 4.14 | I 3.47 | R 2.94 | T 4.13 | L 3.4 | Y 2.3 | G 4.43 | S 3.56 | C 3.82
P6: R 1.95 | T 2.23 | M 2.44 | N 2.94 | C 2.32 | H 2.36 | A 2.18 | L 1.49 | S 2.65 | I 1.84 | V 1.82 | K 2.16 | W 2.35 | D 3.01 | F 2.02 | E 3.08 | Y 1.7 | Q 2.63 | G 2.31
P4: E 2.23 | I 1.77 | F 1.61 | D 2.33 | K 2.08 | H 2.26 | Q 2.2 | L 1.93 | N 2.43 | A 1.79 | G 1.95 | W 1.76 | Y 1.38 | T 1.67 | S 1.71 | V 2.13 | R 2.12 | C 1.56 | M 2.18
T8: F 1.33 | A 2.62 | H 3.12 | I 2.85 | D 2.65 | C 2.56 | E 2.23 | G 2.3
S5: G 2.45 | K 2.66 | E 3.18 | W 2.62 | C 2.16 | R 2.1 | A 2.51 | F 1.97 | Q 2.34 | H 1.96 | I 1.95 | Y 1.96 | D 3 | L 2.81 | M 2.24 | V 2.64 | N 2.59
A2: Q 2.17 | T 3.36 | M 2.27 | P 3.03 | W 1.99 | R 2.89 | C 1.69 | S 2.97 | I 2.03 | N 3.45 | H 1.63 | L 2.56 | E 4.29 | D 3.57 | G 3.57 | F 2.44 | K 3.08 | Y 2.09 | V 1.69
A7: P 2.62 | H 2.7 | D 2.25 | L 1.9 | I 2.1 | Y 2.54 | V 2.53 | M 2.23 | T 2.11 | F 2.65 | C 1.75 | K 2.65 | Q 2.84 | N 2.46 | E 3.06 | S 2.49 | G 2.85 | W 3 | R 2.36
